In patent US20240270846A1 (published 2024):

Assays:
[1] = molecular target: T1, biotin-labeled human CD137 fused to human IgG1 Fc fragment (human, biotin-labeled); experiment: bead ELISA, IgG on biotin-human CD137-Fc on streptavidin beads, no free CD3e
T1 construct: Immobilised on streptavidin beads through biotin; also called human CD137-Fc; biotin-human CD137-Fc

[2] = molecular target: T1, biotin-labeled human CD137 fused to …; experiment: competitive bead ELISA, IgG on biotin-human CD137-Fc, competitor free CD3 epsilon peptide 125 pmol/well
[3] = molecular target: T1, biotin-labeled human CD137 fused to …; experiment: competitive bead ELISA, decrease of signal on biotin-human CD137-Fc with 125 pmol/well free CD3 epsilon peptide against 0
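For ELISA signal, free CD3e 125 pmol/well in this document: bead ELISA on streptavidin-coated magnetic beads, with the signal read as well fluorescence 2 min after APS-5 addition.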

B1: dBBDu121 (antibody, human IgG1, V domains shown)
VH: QVQLVESGGGLVQPGRSLRLSCAASGFTFSNAWMHWVRQAPGKGLEWVAQIKDKGNAYAAYYAPSVKGRFTISRDDSKNSIYLQMNSLKTEDTAVYYCHYVHYASAAGGLPGFGVDAWGQGTTVTVSS
VL: DIVMTQSPLSLPVTPGEPASISCRSSQSLVHSNRNTYLHWYQQKPGQAPRLLIYKVSNRFSGVPDRFSGSGSGTDFTLKISRVEAEDVGVYYCGQGTQVPYTFGQGTKLEIK
notes: IgG: VH joined to human IgG1 CH1-Fc, GLS3000 as light chain; also called DXDU01_3_#094; DXDU01_3 #094
ELISA signal, free CD3e 0 pmol/well [1]: 3610
ELISA signal, free CD3e 125 pmol/well [2]: 1830
Signal decrease [3]: 49.4%

B2: dBBDu122 (antibody, human IgG1, V domains shown)
VH: QVQLVESGGGLVQPGRSLRLSCAASGFTFSNAWMHWVRQAPGKGLEWVAQIKDRSQLYAAYYAPSVKGRFTISRDDSKNSIYLQMNSLKTEDTAVYYCHYVHYASASTVLGAYGVDAWGQGTTVTVSS
VL: DIVMTQSPLSLPVTPGEPASISCRSSQSLVHSNRNTYLHWYQQKPGQAPRLLIYKVSNRFSGVPDRFSGSGSGTDFTLKISRVEAEDVGVYYCGQGTQVPYTFGQGTKLEIK
notes: IgG: VH joined to human IgG1 CH1-Fc, GLS3000 as light chain; also called DXDU01_3_#072; DXDU01_3 #072
ELISA signal, free CD3e 0 pmol/well [1]: 2700
ELISA signal, free CD3e 125 pmol/well [2]: 1880
Signal decrease [3]: 30.2%

B3: dBBDu123 (antibody, human IgG1, V domains shown)
VH: QVQLVESGGGLVQPGRSLRLSCAASGFTFSNAWMHWVRQAPGKGLEWVAQIKDRANSYNAYYAPSVKGRFTISRDDSKNSIYLQMNSLKTEDTAVYYCHYVHYSAASTLLPSFGVDAWGQGTTVTVSS
VL: DIVMTQSPLSLPVTPGEPASISCRSSQSLVHSNRNTYLHWYQQKPGQAPRLLIYKVSNRFSGVPDRFSGSGSGTDFTLKISRVEAEDVGVYYCGQGTQVPYTFGQGTKLEIK
notes: IgG: VH joined to human IgG1 CH1-Fc, GLS3000 as light chain; also called DADU01_3_#018; DADU01_3 #018
ELISA signal, free CD3e 0 pmol/well [1]: 2750
ELISA signal, free CD3e 125 pmol/well [2]: 1840
Signal decrease [3]: 33%

B4: dBBDu124 (antibody, human IgG1, V domains shown)
VH: QVQLVESGGGLVQPGRSLRLSCAASGFTFSNAWMHWVRQAPGKGLEWVAQIKDKQNLYNAYYAESVKGRFTISRDDSKNSIYLQMNSLKTEDTAVYYCHYVHYASASTVLPAFGVDAWGQGTTVTVSS
VL: DIVMTQSPLSLPVTPGEPASISCRSSQSLVHSNRNTYLHWYQQKPGQAPRLLIYKVSNRFSGVPDRFSGSGSGTDFTLKISRVEAEDVGVYYCGQGTQVPYTFGQGTKLEIK
notes: IgG: VH joined to human IgG1 CH1-Fc, GLS3000 as light chain; also called DADU01_3_#002; DADU01_3 #002
ELISA signal, free CD3e 0 pmol/well [1]: 6620
ELISA signal, free CD3e 125 pmol/well [2]: 2120
Signal decrease [3]: 68%

B5: dBBDu126 (antibody, human IgG1, V domains shown)
VH: QVQLVESGGGLVQPGRSLRLSCAASGFTFSIAWMHWVRQAPGKGLEWVAQIKDRVNAYEAYYAPSVKGRFTISRDDSKNSIYLQMNSLKTEDTAVYYCRYVHYASYYDLLGYGGVDAWGQGTTVTVSS
VL: DIVMTQSPLSLPVTPGEPASISCRSSQSLVHSNRNTYLHWYQQKPGQAPRLLIYKVSNRFSGVPDRFSGSGSGTDFTLKISRVEAEDVGVYYCGQGTQVPYTFGQGTKLEIK
notes: IgG: VH joined to human IgG1 CH1-Fc, GLS3000 as light chain; also called DADU01_3_#001; DADU01_3 #001
ELISA signal, free CD3e 0 pmol/well [1]: 116000
ELISA signal, free CD3e 125 pmol/well [2]: 2610
Signal decrease [3]: 97.8%

B6: dBBDu127 (antibody, human IgG1, V domains shown)
VH: QVQLVESGGGLVQPGRSLRLSCAASGFTFSNAWMHWVRQAPGKGLEWVAQIKDRGQQYNAYYAPSVKGRFTISRDDSKNSIYLQMNSLKTEDTAVYYCHYVHYASASSVLPGYGVDAWGQGTTVTVSS
VL: DIVMTQSPLSLPVTPGEPASISCRSSQSLVHSNRNTYLHWYQQKPGQAPRLLIYKVSNRFSGVPDRFSGSGSGTDFTLKISRVEAEDVGVYYCGQGTQVPYTFGQGTKLEIK
notes: IgG: VH joined to human IgG1 CH1-Fc, GLS3000 as light chain; also called DXDU01_3_#051; DXDU01_3 #051
ELISA signal, free CD3e 0 pmol/well [1]: 3230
ELISA signal, free CD3e 125 pmol/well [2]: 2200
Signal decrease [3]: 32%

B7: dBBDu167 (antibody, human IgG1, V domains shown)
VH: QVQLVESGGGLVQPGRSLRLSCAASGFTFSNAWMHWVRQAPGKGLEWVAQIKDKGNLYAAYYAPSVKGRFTISRDDSKNSIYLQMNSLKTEDTAVYYCHYVHYASAGGGLPGFGVDAWGQGTTVTVSS
VL: DIVMTQSPLSLPVTPGEPASISCRSSQSLVHSNRNTYLHWYQQKPGQAPRLLIYKVSNRFSGVPDRFSGSGSGTDFTLKISRVEAEDVGVYYCGQGTQVPYTFGQGTKLEIK
notes: IgG: VH joined to human IgG1 CH1-Fc, GLS3000 as light chain
ELISA signal, free CD3e 0 pmol/well [1]: 25700
ELISA signal, free CD3e 125 pmol/well [2]: 1940
Signal decrease [3]: 92.5%

B8: dBBDu173 (antibody, human IgG1, V domains shown)
VH: QVQLVESGGGLVQPGRSLRLSCAASGFTFSNAWMHWVRQAPGKGLEWVAQIKDKGNLYAAYYAPSVKGRFTISRDDSKNSIYLQMNSLKTEDTAVYYCHYVHYASAGGGLSAYGVDAWGQGTTVTVSS
VL: DIVMTQSPLSLPVTPGEPASISCRSSQSLVHSNRNTYLHWYQQKPGQAPRLLIYKVSNRFSGVPDRFSGSGSGTDFTLKISRVEAEDVGVYYCGQGTQVPYTFGQGTKLEIK
notes: as for B7
ELISA signal, free CD3e 0 pmol/well [1]: 6540
ELISA signal, free CD3e 125 pmol/well [2]: 2040
Signal decrease [3]: 68.8%

B9: dBBDu179 (antibody, human IgG1, V domains shown)
VH: QVQLVESGGGLVQPGRSLRLSCAASGFTFSNAWMHWVRQAPGKGLEWVAQIKDRSNQYATYYAPSVKGRFTISRDDSKNSIYLQMNSLKTEDTAVYYCHYVHYASASTVLPAFGVDAWGQGTTVTVSS
VL: DIVMTQSPLSLPVTPGEPASISCRSSQSLVHSNRNTYLHWYQQKPGQAPRLLIYKVSNRFSGVPDRFSGSGSGTDFTLKISRVEAEDVGVYYCGQGTQVPYTFGQGTKLEIK
notes: as for B7
ELISA signal, free CD3e 0 pmol/well [1]: 61000
ELISA signal, free CD3e 125 pmol/well [2]: 2620
Signal decrease [3]: 95.7%

B10: dBBDu183 (antibody, human IgG1, V domains shown)
VH: QVQLVESGGGLVQPGRSLRLSCAASGFTFSNAWMHWVRQAPGKGLEWVAQIKDKGNAYAAYYAPSVKGRFTISRDDSKNSIYLQMNSLKTEDTAVYYCHYVHYASASTVLPAFGVDAWGQGTTVTVSS
VL: DIVMTQSPLSLPVTPGEPASISCRSSQSLVHSNRNTYLHWYQQKPGQAPRLLIYKVSNRFSGVPDRFSGSGSGTDFTLKISRVEAEDVGVYYCGQGTQVPYTFGQGTKLEIK
notes: as for B7
ELISA signal, free CD3e 0 pmol/well [1]: 34000
ELISA signal, free CD3e 125 pmol/well [2]: 2370
Signal decrease [3]: 93%

B11: dBBDu186 (antibody, human IgG1, V domains shown)
VH: QVQLVESGGGLVQPGRSLRLSCAASGFTFSNAWMHWVRQAPGKGLEWVAQIKDRSNQYATYYAPSVKGRFTISRDDSKNSIYLQMNSLKTEDTAVYYCHYVHYAQASTVLPAFGVDAWGQGTTVTVSS
VL: DIVMTQSPLSLPVTPGEPASISCRSSQSLVHSNRNTYLHWYQQKPGQAPRLLIYKVSNRFSGVPDRFSGSGSGTDFTLKISRVEAEDVGVYYCGQGTQVPYTFGQGTKLEIK
notes: as for B7
ELISA signal, free CD3e 0 pmol/well [1]: 34800
ELISA signal, free CD3e 125 pmol/well [2]: 2500
Signal decrease [3]: 92.8%

B12: dBBDu189 (antibody, human IgG1, V domains shown)
VH: QVQLVESGGGLVQPGRSLRLSCAASGFTFSNAWMHWVRQAPGKGLEWIAQIKDRSNQYATYYAPSVKGRFTISRDDSKNSIYLQMNSLKTEDTAVYYCHYVHYAQASSLLPSFGVDAWGQGTTVTVSS
VL: DIVMTQSPLSLPVTPGEPASISCRSSQSLVHSNRNTYLHWYQQKPGQAPRLLIYKVSNRFSGVPDRFSGSGSGTDFTLKISRVEAEDVGVYYCGQGTQVPYTFGQGTKLEIK
notes: as for B7
ELISA signal, free CD3e 0 pmol/well [1]: 27400
ELISA signal, free CD3e 125 pmol/well [2]: 2190
Signal decrease [3]: 92%

B13: dBBDu193 (antibody, human IgG1, V domains shown)
VH: QVQLVESGGGLVQPGRSLRLSCAASGFTFSNAWMHWVRQAPGKGLEWVAQIKDRSNQYATYYAPSVKGRFTISRDDSKNSIYLQMNSLKTEDTAVYYCHYVHYSAASTLLPSFGVDAWGQGTTVTVSS
VL: DIVMTQSPLSLPVTPGEPASISCRSSQSLVHSNRNTYLHWYQQKPGQAPRLLIYKVSNRFSGVPDRFSGSGSGTDFTLKISRVEAEDVGVYYCGQGTQVPYTFGQGTKLEIK
notes: as for B7
ELISA signal, free CD3e 0 pmol/well [1]: 18200
ELISA signal, free CD3e 125 pmol/well [2]: 2280
Signal decrease [3]: 87.5%

B14: dBBDu196 (antibody, human IgG1, V domains shown)
VH: QVQLVESGGGLVQPGRSLRLSCAASGFTFSNAWMHWVRQAPGKGLEWVAQIKDRGNAYNAYYAESVKGRFTISRDDSKNSIYLQMNSLKTEDTAVYYCHYVHYASASTVLPAFGVDAWGQGTTVTVSS
VL: DIVMTQSPLSLPVTPGEPASISCRSSQSLVHSNRNTYLHWYQQKPGQAPRLLIYKVSNRFSGVPDRFSGSGSGTDFTLKISRVEAEDVGVYYCGQGTQVPYTFGQGTKLEIK
notes: as for B7
ELISA signal, free CD3e 0 pmol/well [1]: 33100
ELISA signal, free CD3e 125 pmol/well [2]: 2220
Signal decrease [3]: 93.3%

B15: dBBDu199 (antibody, human IgG1, V domains shown)
VH: QVQLVESGGGLVQPGRSLRLSCAASGFTFSNAWMHWVRQAPGKGLEWVAQIKDKQSGYNTYYAPSVKGRFTISRDDSKNSIYLQMNSLKTEDTAVYYCHYVHYASASTVLPAFGVDAWGQGTTVTVSS
VL: DIVMTQSPLSLPVTPGEPASISCRSSQSLVHSNRNTYLHWYQQKPGQAPRLLIYKVSNRFSGVPDRFSGSGSGTDFTLKISRVEAEDVGVYYCGQGTQVPYTFGQGTKLEIK
notes: as for B7
ELISA signal, free CD3e 0 pmol/well [1]: 40900
ELISA signal, free CD3e 125 pmol/well [2]: 2370
Signal decrease [3]: 94.2%

B16: dBBDu202 (antibody, human IgG1, V domains shown)
VH: QVQLVESGGGLVQPGRSLRLSCAASGFTFSNAWMHWVRQAPGKGLEWVAQIKDKGNAYAAYYAPSVKGRFTISRDDSKNSIYLQMNSLKTEDTAVYYCHYVHYSAASTVLPAFGVDAWGQGTTVTVSS
VL: DIVMTQSPLSLPVTPGEPASISCRSSQSLVHSNRNTYLHWYQQKPGQAPRLLIYKVSNRFSGVPDRFSGSGSGTDFTLKISRVEAEDVGVYYCGQGTQVPYTFGQGTKLEIK
notes: as for B7
ELISA signal, free CD3e 0 pmol/well [1]: 12100
ELISA signal, free CD3e 125 pmol/well [2]: 1930
Signal decrease [3]: 84%

B17: dBBDu204 (antibody, human IgG1, V domains shown)
VH: QVQLVESGGGLVQPGRSLRLSCAASGFTFSNAWMHWVRQAPGKGLEWVAQIKDRSNNYATYYAESVKGRFTISRDDSKNSIYLQMNSLKTEDTAVYYCHYVHYASASTVLPAFGVDAWGQGTTVTVSS
VL: DIVMTQSPLSLPVTPGEPASISCRSSQSLVHSNRNTYLHWYQQKPGQAPRLLIYKVSNRFSGVPDRFSGSGSGTDFTLKISRVEAEDVGVYYCGQGTQVPYTFGQGTKLEIK
notes: as for B7
ELISA signal, free CD3e 0 pmol/well [1]: 43700
ELISA signal, free CD3e 125 pmol/well [2]: 1880
Signal decrease [3]: 95.7%
